What was measured:
[1] = target: RSV F on RSV-A2 virus (Respiratory Syncytial Virus (RSV-A2), UniProt P03420 26-574); test: cell-based or functional assay
[2] = target: RSV prefusion F (preF), DS-Cav1 (Respiratory Syncytial Virus, UniProt P03420 26-513); test: BLI, IgG on anti-human IgG sensor, 100 nM antigen, 1:1 fit
[3] = target: RSV postfusion F (postF), F ΔFP (Respiratory Syncytial Virus, UniProt P03420 26-513); test: as above

Binder | Neutralization IC50 (RSV subtype A) [1] [µg/mL] | Kd [2] [nM] | Kd [3] [nM]
ADI-41455 (antibody, V domains shown) VH: QVQLQESGPGLVKPSQTLSLTCSVSEGSVISGDYYWSWIRQSPGKGLEWLGYIHYSGSTYYNPSLKSRVTISVDTSKKQFSLKLSSVTAADTAVYYCARDLGCIGGVCSAYGLEHNYYFGMDVWGQGTTVTVSS VL: EIVLTQSPATLSLSPGERATLSCRASQSVSSYLAWYQQKPGQAPRLLIYTASNRATGIPARFSGSGSGTDFTLTISSLEPEDFAVYYCQQRSSWPPYTFGQGTKLEIK | > 25 | 1.53 | 0.638
ADI-41456 (antibody, V domains shown, also called Ab 740; Antibody Number 740) VH: EVQLLESGGGLFHPGGSLTLSCVASGFTLSTYYMHWVRQAPGKGLVWVARINSDGGYTTYADSVKGRFTVSRDNAKNTLYLQMNSLRVEDTAVYYCAREWVEFDSWGQGTLVTVSS VL: NFMLTQPHSVSASPGKTVTISCTRSSGNIASNYVQWYQQRPGSSPTTVITEDNQRPSGVPDRFSGSIDSSSNSASLTISGLKTEDEADYYCQSYDSSTYVFGTGTKLTVL | > 25 | 1.48 | 0.267
ADI-41459 (antibody, V domains shown, also called Ab 743; Antibody Number 743) VH: QVQLVESGGGLVQPGGSLRLSCAASGFPFSAYGINWVRQAPGKGLEWVSYISSTSTTIKYADSVKGRFTISRDDAKNSLYLQLRSLRPEDTAVYYCAGGVWSGYYIDFWGQGTPVTVSS VL: NFMLTQPQSVSESPGKTVTISCTRSSGSIGSNFVQWYQQRPGSSPTTVIYEDYQRPSGVPDRFSGSIDSSSNSASLTISGLKTEDEADYYCQSYDADMMVFGGGTKLTVL | > 25 | 1.89 | 0.343
ADI-41460 (antibody, V domains shown) VH: QVTLKESGPALVKPTQTLTLTCTFSGFSLNTRGMCVSWVRQPPGKALEWLARIDWDDDKNYSTSLRTRLTISKDTSRNQVVLAMANMDPVDTATYYCARCARYDRSGYYVWYLDSWGQGTLVTVSS VL: DIQMTQSPSSLSASVGDRVTITCRASQTIASYLNWYQQKPGKAPKLLIYVASTLQSGVPSRFSGSGSGTDFTLTISSLQPEDFATYYCQQSYSLTQWTFGQGTKVEIK | > 25 | 1.23 | 0.632
ADI-41461 (antibody, V domains shown) VH: QVQLVQSGAEVKKPGASVKVSCRASGYTFSSYDINWVRQATGQGLEWMGWMSPNSANTGYAQKFQGRVTMTRDTSINTAYMELSSLSSEDTAVYYCARFLGYCSGGSCYPGYGMDVWGQGTTVTVSS VL: EIVLTQSPDSLAVSLGERATINCKSSQNVLYSSNNKDYLSWYQQKPGQPPKLLIYWASTRESGVPDRFSGSGSGTDFTLTINSLQAEDVAVYYCQQYYGTPYTFGQGTKLEIK | > 25 | 2.3 | 0.548
ADI-41463 (antibody, V domains shown, also called Ab 747; Antibody Number 747) VH: QVQLVQSGAEVKKPGASVKVSCTASGYSFTDYDISWVRQAPGQGLEWMGWISAYNGNTNYAQKFQDRVTMNTDTSTNTAYMELRGLRSDDTAVYYCARNCYYGSGTCYIEDYYFDYWGQGTLVTVSS VL: DIQMTQSPSSLSASVGDRVTITCRASQDIKNDLGWYQQKPGKPPKRLIYGASRSQSGVPSRFSGSGSGTDFTLTIYSLQPEDFATYYCLQHSDYPFTFGQGTRLEIK | > 25 | 2.68 | 0.485
ADI-41464 (antibody, V domains shown) VH: QVQLVESGPGLVRPSGTLSLTCTVSGDSVNSYRWSWIRQSPGKGLEWIGYISYSGETNYNPSLKSRVSISVGTSRYQFFLKLSSVTAADTATYYCARDKTTIFGVSHYYFGVDVWGQGTTVTVSS VL: DIVMTQTPLSLPVTPGEPASISCRSSQSLLKSDGYNSLDWYLQRPGQSPQLLIYLGSNRASGVPARFSGSGSGTDFTLKISRVEAEDVGVYYCMQALQTPFTFGPGTKVEIK | > 25 | 1.91 | 0.313
ADI-41466 (antibody, V domains shown, also called Ab 750; Antibody Number 750) VH: QVQLVQSGAEVKKPGASVKVSCKASGYTFNFYYMHWVRQAPGQGLEWMGWINPKSGGTSYAQKFQGRVIMTGDTSISTTYMELSRLRSDDTAVYYCARADTGLELDVWGQGTTVTVSS VL: QSALIQPASVSGSPGQSITISCTGTSSDVGGYNYVSWYQQHPGKAPKLILYDVSKRPSGVSNRFSGSKSGNTASLTISGLQAEDESDYFCSSYTRSNTVVFGGGTKVTVL | > 25 | 2.05 | 0.383
ADI-41468 (antibody, V domains shown, also called Ab 752; Antibody Number 752) VH: QVQLQQWGAGPLKSSETLSLTCEVYGGPFSGYSWSWIRQPPGKGLEWIGEINHSGSTNYNPSLKSRVSFSVDTSKNQFSLKLSSVTAADTAVYYCARGAGFCTSTSCPPGLYYYYGMDVWGHGTTVTVSS VL: SYELTQPLSVSVALGQTARITCGGNNIESKNVHWYQQMPGLAPVMVIYRDTNRPSGIPERFSGSNSGNTATLTISRAQAGDEADYYCQVWDSGTVIFGGGTKLTVL | > 25 | 0.716 | 0.344
ADI-41469 (antibody, V domains shown) VH: EVQLVESGGGVVQPGRSLRLSCAASGFTFSSYGMHWVRQAPGKGLEWVAVISYDGSFIKYADSMMGRFTISRDNSKNTLYLQMSSLRPEDTATYYCAKDALIPEYWGQGTLVTVSS VL: QPVLTQPASVSGSPGQSITISCTGTSSDVGGYNYVSWYQKHPDKAPRVIIYEVSNRPSGVSNRFSGSKSGNTASLTISGLQAEDEADYYCCSYTSTSGVVFGGGTKLTVL | 0.35 | 0.28 | 0.345
ADI-41471 (antibody, V domains shown) VH: QVQLVQSGADVKKPGSSVKISCKASGGSFITNSLSWVRRAPGQGLEWMGGIIPVSGTTTYAQKFLGRVTFTADESTSTAYMELNSLRSEDTAVYYCARFLGTPYPNVHYGMDVWGQGTTVTVSS VL: DIRVTQSPSSLSASVGARVTITCRASQSISTYLNWYQEKPGKAPKLLIYAASSLQRGVPSRFSGSGSETTFTLTISSLQPEDFATYYCQQSYTAAYNFGQGTKVEIK | > 25 | 3.75 | 0.761
ADI-41472 (antibody, V domains shown) VH: QVQLVQSGAEVKKPGSSVKVSCKASGGTFSSYAISWVRQAPGQGLEWMGRIIPVLDITNYAQKFQGRVTIMADKSTSTAYMELSSLRSEDTAIYYCARETSNFYFYYNAMDVWGQGTTVTVSS VL: QPVLTQPPSASGSPGQSVTISCTGTSSDVGGDNYVSWYQQHPGKAPKLLIYEVSKRPSGVPDRFSGSRSGHTASLTVSGLQAEDEADYYCSSYAGRNNLGVFGGGTKLTVL | 0.27 | 3.05 | 1.06
ADI-41473 (antibody, V domains shown) VH: QVQLVQSGPGLVKPSQTLSLTCAISGDSVSSNSAAWSWIRQSPSRGLEWLGRTYYRSKWYYDHAVSVEGRITINADTSKNHFSLQLNSVTPEDTAVYYCARDPDSGNYFHYYGMDVWGQGTTVTVSS VL: ETTLTQSPATLSLSPGERATLSCRTSQSVSSYLAWYQQKPGQAPRLLIYDASRRATGIPARFSGSGSGTHFTLTITSLEPEDFAVYYCQQRSKWPPYSFGQGTKVDIK | > 25 | 12.7 | 31.2
ADI-41474 (antibody, V domains shown, also called Ab 757; Antibody Number 757) VH: QVQLVQSGAEVKRPGASVKVSCKISGYTFTSHYIHWLRQAPGQGLEWMGWINPNTGDTKYEQKFQGRVTMTRDTSLSTAYMELRRLRSDDTAVYYCARDSFYAANGYYFVWFDPWGQGALVTVSS VL: DIQMTQSPTSLSASVGDRVTITCRASQSISSYLNWYQQKPGKAPRFLIYAASSLQSGVPSRFRGSGSGTDFTLTISSLQPEDFATYYCQQSYSSPYTFGQGTKVEIK | 0.26 | 17.8 | 34.8
